Source: PMC5959238 (Genes & Development, 2018)
Non-standard residues stand in square brackets, D forms with d. No end group written: not given here. Tyr(3-I) = N[C@@H](Cc1ccc(O)c(I)c1)C(=O)O

T1: HIS-TEV-tagged CBP80(Δ2–23) (human, UniProt Q09161 24-790, Δ2–23)
T1 sequence: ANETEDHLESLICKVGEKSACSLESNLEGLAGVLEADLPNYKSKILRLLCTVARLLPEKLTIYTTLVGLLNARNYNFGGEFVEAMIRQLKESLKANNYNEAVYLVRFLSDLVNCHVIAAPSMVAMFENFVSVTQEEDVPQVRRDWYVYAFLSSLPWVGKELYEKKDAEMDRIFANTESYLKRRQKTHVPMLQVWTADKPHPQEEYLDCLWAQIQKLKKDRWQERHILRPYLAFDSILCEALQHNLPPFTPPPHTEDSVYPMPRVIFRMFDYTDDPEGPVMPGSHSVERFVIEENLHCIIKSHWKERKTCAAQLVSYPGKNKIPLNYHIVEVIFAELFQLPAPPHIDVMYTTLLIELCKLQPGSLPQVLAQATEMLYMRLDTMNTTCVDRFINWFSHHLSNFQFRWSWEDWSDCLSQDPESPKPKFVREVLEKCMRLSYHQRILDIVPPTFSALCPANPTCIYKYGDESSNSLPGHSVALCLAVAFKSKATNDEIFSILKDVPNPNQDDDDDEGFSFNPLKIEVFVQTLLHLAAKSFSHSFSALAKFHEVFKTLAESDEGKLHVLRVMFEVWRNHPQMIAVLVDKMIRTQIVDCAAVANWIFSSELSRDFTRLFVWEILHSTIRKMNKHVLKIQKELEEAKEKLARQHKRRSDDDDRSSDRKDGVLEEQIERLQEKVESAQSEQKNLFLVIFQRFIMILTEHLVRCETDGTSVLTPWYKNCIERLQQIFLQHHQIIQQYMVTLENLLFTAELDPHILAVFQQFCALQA

T2: cap-binding complex (CBC): preformed complex of CBP80–CBP20 (human, UniProt Q09161;P52298, Δ2–23)
T2 sequence 1: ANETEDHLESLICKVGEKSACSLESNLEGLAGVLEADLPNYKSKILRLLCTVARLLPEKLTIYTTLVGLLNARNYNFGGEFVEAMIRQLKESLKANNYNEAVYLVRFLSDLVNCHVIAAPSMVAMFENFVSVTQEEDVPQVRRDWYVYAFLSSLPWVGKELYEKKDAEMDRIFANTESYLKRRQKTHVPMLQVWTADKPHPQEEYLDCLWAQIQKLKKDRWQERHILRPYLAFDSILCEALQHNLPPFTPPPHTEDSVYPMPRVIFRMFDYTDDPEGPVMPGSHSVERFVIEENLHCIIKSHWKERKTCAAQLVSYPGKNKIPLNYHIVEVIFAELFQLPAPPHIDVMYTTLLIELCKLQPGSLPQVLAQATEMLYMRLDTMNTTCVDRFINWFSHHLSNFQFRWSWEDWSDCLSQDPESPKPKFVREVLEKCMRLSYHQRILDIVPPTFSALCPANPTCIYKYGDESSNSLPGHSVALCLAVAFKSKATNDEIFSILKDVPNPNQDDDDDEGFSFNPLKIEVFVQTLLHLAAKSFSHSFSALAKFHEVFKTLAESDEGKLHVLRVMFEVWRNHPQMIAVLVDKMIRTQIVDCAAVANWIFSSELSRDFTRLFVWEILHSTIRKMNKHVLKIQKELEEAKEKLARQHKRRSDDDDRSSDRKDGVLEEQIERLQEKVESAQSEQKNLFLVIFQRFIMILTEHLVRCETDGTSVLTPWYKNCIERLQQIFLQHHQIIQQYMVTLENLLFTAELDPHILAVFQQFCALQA
T2 sequence 2: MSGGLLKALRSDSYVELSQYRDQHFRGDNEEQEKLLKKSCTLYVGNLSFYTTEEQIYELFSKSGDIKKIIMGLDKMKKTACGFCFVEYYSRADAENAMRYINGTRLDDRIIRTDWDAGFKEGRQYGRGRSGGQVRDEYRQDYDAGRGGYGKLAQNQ


Columns and labels:
[1] = molecular target: T1, HIS-TEV-tagged CBP80(Δ2–23); assay: crystal structure
[2] = molecular target: T2, cap-binding complex (CBC): preformed …; assay: crystal structure
[3] = molecular target: T1, HIS-TEV-tagged CBP80(Δ2–23); assay: pull-down
[4] = molecular target: T2, cap-binding complex (CBC): preformed …; assay: fluorescence polarisation

binding result [1] | binding result [4] | Binder | further results
binds | – | CBP20 (natural protein) MSGGLLKALRSDSYVELSQYRDQHFRGDNEEQEKLLKKSCTLYVGNLSFYTTEEQIYELFSKSGDIKKIIMGLDKMKKTACGFCFVEYYSRADAENAMRYINGTRLDDRIIRTDWDAGFKEGRQYGRGRSGGQVRDEYRQDYDAGRGGYGKLAQNQ | –
binds | – | Ac-SEEALPASGKSK[Tyr(3-I)]EAMDFDSLLKEAQQSLH (not fully specified) [synthetic PGC-1β peptide spanning amino acids 994–1023] | binding result [2]: binds
– | – | PASGKSKYEAMDFDSLLKEAQQSLH (domain or fragment) [PGC-1β amino acids 999–1023] | binding result [3]: binds
– | binds | MDFDSLLKEAQQS [PGC-1β peptide, amino acids 1009–1021] | –
– | binds | MDFDSLLKEGQQS [PGC-1β-10G] | –
